Laboratory results as given in patent publication US20190022206A1 (UNIVERSITY OF COPENHAGEN, published 2019).

B1: mSA-PfRH5-HIS (other)
chain: AEAGITGTWYNQHGSTFTVTAGADGNLTGQYENRAQGTGCQNSPYTLTGRYNGTKLEWRVEWNNSTENCHSRTEWRGQYQGGAEARINTQWNLTYEGGSGPATEQGQDTFTKVKGGSLSFENAIKKTKNQENNLTLLPIKSTEEEKDDIKNGKDIKKEIDNDKENIKTNNAKDHSTYIKSYLNTNVNDGLKYLFIPSHNSFIKKYSVFNQINDGMLLNEKNDVKNNEDYKNVDYKNVNFLQYHFKELSNYNIANSIDILQEKEGHLDFVIIPHYTFLDYYKHLSYNSIYHKYSTYGKYIAVDAFIKKINETYDKVKSKCNDIKNDLIATIKKLEHPYDINNKNDDSYRYDISEEIDDKSEETDDETEEVEDSIQDTDSNHTPSNKKKNDLMNRTFKKMMDEYNTKKKKLIKCIKNHENDFNKICMDMKNYGTNLFEQLSCYNNNFCNTNGIRFHYDEYIHKLILSVKSKNLNKDLSDMTNILQQSELLLTNLNKKMGSYIYIDTIKFIHKEMKHIFNRIEYHTKIINDKTKIIQDKIKLNIWRTFQKDELLKRILDMSNEYSLFITSDHLRQMLYNTFYSKEKHLNNIFHHLIYVLQMKFNDVPIKMEYFQTYKKNKPLTQHHHHHH
notes: mSA fused by GGS to PfRH5, C-terminal His tag; also called A9
B2: HIS-GMZ2ggsmSA (other)
chain: GSTSENRNKRIGGPKLRGNVTSNIKFPSDNKGKIIRGSNDKLNKNSEDVLEQSEKSLVSENVPSGLDIDDIPKESIFIQEDQEGQTHSELNPETSEHSKDLNNNGSKNESSDIISENNKSNKVQNHFESLSDLELLENSSQDNLDKDTISTEPFPNQKHKDLQQDLNDEPLEPFPTQIHKDYKEKNLINEEDSEPFPRQKHKKVDNHNEEKNVFHENGSANGNQGSLKLKSFDEHLKDEKIENEPLVHENLSIPNDPIEQILNQPEQETNIQEQLYNEKQNVEEKQNSQIPSLDLKEPTNEDILPNHNPLENIKQSESEINHVQDHALPKENIIDKLDNQKEHIDQSQHNINVLQENNINNHQLEPQEKPNIESFEPKNIDSEIILPENVETEEIIDDVPSPKHSNHETFEEETSESEHEEAVSEKNAHETVEHEETVSQESNPEKADNDGNVSQNSNNELNENEFVESEKSEHEARSKAKEASSYDYILGWEFGGGVPEHKKEENMLSHLYVSSKDKENISKENDDVLDEKEEEAEETEEEELEEKNEEETESEISEDEEEEEEEEEKEEENDKKKEQEKEQSNENNDQKKDMEAQNLISKNQNNNEKNVKEAAESIMKTLAGLIKGNNQIDSTLKDLVEELSKYFKNHGGSGAEAGITGTWYNQHGSTFTVTAGADGNLTGQYENRAQGTGCQNSPYTLTGRYNGTKLEWRVEWNNSTENCHSRTEWRGQYQGGAEARINTQWNLTYEGGSGPATEQGQDTFTKVK
notes: also called A7
B3: mSA-ID1ID2a-HIS (other)
chain: AEAGITGTWYNQHGSTFTVTAGADGNLTGQYENRAQGTGCQNSPYTLTGRYNGTKLEWRVEWNNSTENCHSRTEWRGQYQGGAEARINTQWNLTYEGGSGPATEQGQDTFTKVKGGSNYIKGDPYFAEYATKLSFILNPSDANNPSGETANHNDEACNCNESGISSVGQAQTSGPSSNKTCITHSSIKTNKKKECKDVKLGVRENDKDLKICVIEDTSLSGVDNCCCQDLLGILQENCSDNKRGSSSNDSCDNKNQDECQKKLEKVFASLTNGYKCDKCKSGTSRSKKKWIWKKSSGNEEGLQEEYANTIGLPPRTQSLYLGNLPKLENVCEDVKDINFDTKEKFLAGCLIVSFHEGKNLKKRYPQNKNSGNKENLCKALEYSFADYGDLIKGTSIWDNEYTKDLELNLQNNFGKLFGKYIKKNNTAEQDTSYSSLDELRESWWNTNKKYIWTAMKHGAEMNITTCNADGSVTGSGSSCDDIPTIDLIPQYLRFLQEWVENFCEQRQAKVKDVITNCKSCKESGNKCKTECKTKCKDECEKYKKFIEACGTAGGGIGTAGSPWSKRWDQIYKRYSKHIEDAKRNRKAGTKNCGTSSTTNAAASTDENKCVQSDIDSFFKHLIDIGLTTPSSYLSNVLDDNICGADKAPWTTYTTYTTTEKCNKERDKSKSQSSDTLVVVNVPSPLGNTPYRYKYACQCKIPTNEETCDDRKEYMNQWSCGSARTMKRGYKNDNYELCKYNGVDVKPTTVRSNSSKLDHHHHHH
notes: mSA fused at the amino terminus by Gly-Gly-Ser to the ID1-ID2a domains of VAR2CSA, C-terminal 6x histidine tag; made in baculovirus-infected High-Five cells; also called A4; mSA-VAR2CSA
B4: HIS-RO-mSA (other)
chain: GSTSENRNKRIGGPKLRGNVTSNIKFPSDNKGKIIRGSNDKLNKNSEDVLEQSEKSLVSENVPSGLDIDDIPKESIFIQEDQEGQTHSELNPETSEHSKDLNNNGSKNESSDIISENNKSNKVQNHFESLSDLELLENSSQDNLDKDTISTEPFPNQKHKDLQQDLNDEPLEPFPTQIHKDYKEKNLINEEDSEPFPRQKHKKVDNHNEEKNVFHENGSANGNQGSLKLKSFDEHLKDEKIENEPLVHENLSIPNDPIEQILNQPEQETNIQEQLYNEKQNVEEKQNSQIPSLDLKEPTNEDILPNHNPLENIKQSESEINHVQDHALPKENIIDKLDNQKEHIDQSQHNINVLQENNINNHQLEPQEKPNIESFEPKNIDSEIILPENVETEEIIDDVPSPKHSNHETFEEETSESEHEEAVSEKNAHETVEHEETVSQESNPEKADNDGNVSQNSNNELNENEFVESEKSEHEAGGSGAEAGITGTWYNQHGSTFTVTAGADGNLTGQYENRAQGTGCQNSPYTLTGRYNGTKLEWRVEWNNSTENCHSRTEWRGQYQGGAEARINTQWNLTYEGGSGPATEQGQDTFTKVK
notes: also called A6
B5: HIS-GMZ2T:ggsmSA (other)
chain: GSTSENRNKRIGGPKLRGNVTSNIKFPSDNKGKIIRGSNDKLNKNSEDVLEQSEKSLVSENVPSGLDIDDIPKESIFIQEDQEGQTHSELNPETSEHSKDLNNNGSKNESSDIISENNKSNKVQNHFESLSDLELLENSSQDNLDKDTISTEPFPNQKHKDLQQDLNDEPLEPFPTQIHKDYKEKNLINEEDSEPFPRQKHKKVDNHNEEKNVFHENGSANGNQGSLKLKSFDEHLKDEKIENEPLVHENLSIPNDPIEQILNQPEQETNIQEQLYNEKQNVEEKQNSQIPSLDLKEPTNEDILPNHNPLENIKQSESEINHVQDHALPKENIIDKLDNQKEHIDQSQHNINVLQENNINNHQLEPQEKPNIESFEPKNIDSEIILPENVETEEIIDDVPSPKHSNHETFEEETSESEHEEAVSEKNAHETVEHEETVSQESNPEKADNDGNVSQNSNNELNENEFVESEKSEHEARSKTKEYAEKAKNAYEKAKNAYQKANQAVLKAKEASSYDYILGWEFGGGVPEHKKEENMLSHLYVSSKDKENISKENDDVLDEKEEEAEETEEEELEGGSGAEAGITGTWYNQHGSTFTVTAGADGNLTGQYENRAQGTGCQNSPYTLTGRYNGTKLEWRVEWNNSTENCHSRTEWRGQYQGGAEARINTQWNLTYEGGSGPATEQGQDTFTKVK
notes: also called A8
B6: mSA-RO-HIS (other)
chain: AEAGITGTWYNQHGSTFTVTAGADGNLTGQYENRAQGTGCQNSPYTLTGRYNGTKLEWRVEWNNSTENCHSRTEWRGQYQGGAEARINTQWNLTYEGGSGPATEQGQDTFTKVKGGSTSENRNKRIGGPKLRGNVTSNIKFPSDNKGKIIRGSNDKLNKNSEDVLEQSEKSLVSENVPSGLDIDDIPKESIFIQEDQEGQTHSELNPETSEHSKDLNNNGSKNESSDIISENNKSNKVQNHFESLSDLELLENSSQDNLDKDTISTEPFPNQKHKDLQQDLNDEPLEPFPTQIHKDYKEKNLINEEDSEPFPRQKHKKVDNHNEEKNVFHENGSANGNQGSLKLKSFDEHLKDEKIENEPLVHENLSIPNDPIEQILNQPEQETNIQEQLYNEKQNVEEKQNSQIPSLDLKEPTNEDILPNHNPLENIKQSESEINHVQDHALPKENIIDKLDNQKEHIDQSQHNINVLQENNINNHQLEPQEKPNIESFEPKNIDSEIILPENVETEEIIDDVPSPKHSNHETFEEETSESEHEEAVSEKNAHETVEHEETVSQESNPEKADNDGNVSQNSNNELNENEFVESEKSEHEARSKAKEASSYDYILGWEFGGGVPEHKKEENMLSHLYVSSKDKENISKENDDVLDEKEEEAEETEEEELEEKNEEETESEISEDEEEEEEEEEKEEENDKKKEQEKEQSNENNDQKKDMEAQNLISKNQNNNEKNVKEAAESIMKTLAGLIKGNNQIDSTLKDLVEELSKYFKNHRSHHHHHH
notes: also called A5
B7: mSA-Pfs25-HIS (other)
chain: AEAGITGTWYNQHGSTFTVTAGADGNLTGQYENRAQGTGCQNSPYTLTGRYNGTKLEWRVEWNNSTENCHSRTEWRGQYQGGAEARINTQWNLTYEGGSGPATEQGQDTFTKVKGGSNKLYSLFLFLFIQLSIKYNNAKVTVDTVCKRGFLIQMSGHLECKCENDLVLVNEETCEEKVLKCDEKTVNKPCGDFSKCIKIDGNPVSYACKCNLGYDMVNNVCIPNECKNVTCGNGKCILDTSNPVKTGVCSCNIGKVPNVQDQNKCSKDGETKCSLKCLKENETCKAVDGIYKCDCKDGFIIDNESSICTAFSAYNILNLSIMFILFSVCFFIM
notes: also called A10

Key:
[1] = molecular target: T1, biotinylated HPV16 Avi-L1 VLP, L1avi1 (H4-loop, HPV16) (Human papillomavirus type 16, UniProt P03101 14-505); assay: biotinylated VLPs mixed with excess mSA-antigen, density gradient ultracentrifugation, SDS-PAGE
T1 construct: also called VLP1; Avi-L1 (H4-βJ coil)
T1 sequence: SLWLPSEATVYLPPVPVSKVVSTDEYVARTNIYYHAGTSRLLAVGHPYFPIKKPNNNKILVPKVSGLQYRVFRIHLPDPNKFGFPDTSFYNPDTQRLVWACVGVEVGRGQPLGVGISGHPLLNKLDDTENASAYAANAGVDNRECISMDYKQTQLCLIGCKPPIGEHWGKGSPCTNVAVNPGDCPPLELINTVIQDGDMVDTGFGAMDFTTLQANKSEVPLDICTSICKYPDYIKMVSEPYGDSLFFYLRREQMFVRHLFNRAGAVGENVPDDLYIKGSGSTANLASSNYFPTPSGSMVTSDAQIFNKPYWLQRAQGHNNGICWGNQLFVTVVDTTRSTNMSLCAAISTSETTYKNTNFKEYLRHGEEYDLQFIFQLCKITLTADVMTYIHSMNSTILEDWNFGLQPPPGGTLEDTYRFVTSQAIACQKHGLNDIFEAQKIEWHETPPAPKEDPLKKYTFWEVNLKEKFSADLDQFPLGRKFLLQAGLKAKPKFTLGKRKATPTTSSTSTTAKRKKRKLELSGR

[2] = molecular target: T2, biotinylated HPV16 Avi-L1 VLP, L1avi3 (DE-loop, HPV16) (Human papillomavirus type 16, UniProt P03101 2-505); assay: coupling: biotinylated VLPs mixed with excess mSA-antigen, density gradient ultracentrifugation, SDS-PAGE
T2 construct: also called VLP3; Avi-L1 (DE)
T2 sequence: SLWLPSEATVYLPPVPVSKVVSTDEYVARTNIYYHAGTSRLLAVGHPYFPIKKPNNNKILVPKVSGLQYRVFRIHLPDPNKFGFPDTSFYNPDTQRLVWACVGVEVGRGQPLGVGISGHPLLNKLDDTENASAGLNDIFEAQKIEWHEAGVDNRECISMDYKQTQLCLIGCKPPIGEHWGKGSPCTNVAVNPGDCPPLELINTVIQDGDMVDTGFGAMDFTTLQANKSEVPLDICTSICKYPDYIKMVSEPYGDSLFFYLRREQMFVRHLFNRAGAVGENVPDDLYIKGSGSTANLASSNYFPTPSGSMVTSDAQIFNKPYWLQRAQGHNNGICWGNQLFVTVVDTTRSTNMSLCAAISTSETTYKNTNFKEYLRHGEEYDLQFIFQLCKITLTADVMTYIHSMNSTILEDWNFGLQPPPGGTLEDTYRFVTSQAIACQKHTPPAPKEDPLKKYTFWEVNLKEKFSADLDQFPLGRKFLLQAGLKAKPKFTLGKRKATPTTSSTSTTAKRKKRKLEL

| Binder | binding result [1] | binding result [2] |
| --- | --- | --- |
| B1 | no binding | binds |
| B2 | no binding | binds |
| B3 | no binding | binds |
| B4 | no binding | binds |
| B5 | no binding | binds |
| B6 | no binding | – |
| B7 | no binding | – |
